This is an account of results in paper PMC5515580.

Assay [1] has as its target MAST3-HA (human) (UniProt O60307).
In assay [2] the target is Recombinant PKA (UniProt P17612).

Chain of 6xHis-ARPP-16 (P56211 17-112): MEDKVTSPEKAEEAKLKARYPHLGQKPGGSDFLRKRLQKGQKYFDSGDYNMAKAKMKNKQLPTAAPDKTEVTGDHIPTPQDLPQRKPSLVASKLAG
Chain of MAST3-HA (human) (O60307 313-1021): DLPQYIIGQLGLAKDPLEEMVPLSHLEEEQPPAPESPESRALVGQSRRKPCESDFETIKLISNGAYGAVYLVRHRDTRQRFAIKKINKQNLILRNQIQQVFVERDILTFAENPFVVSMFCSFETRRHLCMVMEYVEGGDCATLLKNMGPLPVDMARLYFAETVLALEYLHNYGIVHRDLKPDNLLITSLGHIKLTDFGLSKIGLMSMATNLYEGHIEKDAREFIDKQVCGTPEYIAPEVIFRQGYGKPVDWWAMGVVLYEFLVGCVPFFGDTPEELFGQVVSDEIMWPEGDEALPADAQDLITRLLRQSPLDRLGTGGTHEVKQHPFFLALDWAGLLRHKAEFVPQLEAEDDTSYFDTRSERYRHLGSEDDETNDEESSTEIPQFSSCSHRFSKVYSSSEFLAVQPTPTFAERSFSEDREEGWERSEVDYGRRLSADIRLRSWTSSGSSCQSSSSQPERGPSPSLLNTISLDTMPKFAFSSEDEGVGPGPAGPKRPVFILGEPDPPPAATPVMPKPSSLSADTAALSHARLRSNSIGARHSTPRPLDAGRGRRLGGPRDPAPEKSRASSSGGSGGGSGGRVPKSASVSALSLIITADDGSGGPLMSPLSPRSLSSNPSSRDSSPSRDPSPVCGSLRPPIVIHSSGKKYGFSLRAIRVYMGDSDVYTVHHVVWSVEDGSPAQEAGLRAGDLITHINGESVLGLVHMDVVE
Chain of P-S46-ARPP-16 (P56211 17-112): as the sequence (P56211 17-112) above

Take “6xHis-ARPP-16 (from UniProt P56211-2 1-96) (natural protein)”: in assay [1], the Km of phosphorylation of Ser46 by immunoprecipitated MAST3 (32P incorporation, 10-500 nM substrate, 2 min; Figure 1b) is 0.09 µM and the Km of phosphorylation of Ser46 by immunoprecipitated MAST3 (32P incorporation, 10-500 nM substrate, 2 min; Figure 1—figure supplement 1) was found to be 0.092 µM. Besides, the Km of phosphorylation of Ser88 by PKA (32P incorporation, 10-500 nM substrate; Figure 1d) in assay [2] amounted to 1.69 µM.

“P-S46-ARPP-16 (from UniProt P56211-2 1-96) (natural protein)”: the Km of phosphorylation of Ser88 by PKA (32P incorporation, 10-500 nM substrate; Figure 1d) in assay [2] worked out at 0.87 µM.
